Test results from patent US20070110757A1.
Residue numbers refer to the chain shown, from its start.

B1: A17d4(1) monoclonal antibody (antibody, V domains shown)
VH: QVTLRESGPALVKPTQTLTLTCTFSGFSLSTAGMSVGWIRQPPGKALEWLADIWWDGKKSYNPSLKDRLTISKDTSKNQVVLKVTNMDPADTATYYCARDMIFNFYFDVWGQGTTVTVSS
VL: DIQMTQSPSTLSASVGDRVTITCLPSSRVGYMHWYQQKPGKAPKLLIYDTMYQSSGVPSRFSGSGSGTEFTLTISSLQPDDFATYYCFQGSGYPFTFGGGTKVEIK
B2: A13c4 Fab fragment (Fab, V domains shown)
VH: B1 VH
VL: B1 VL with L24S, P25L
B3: A12a6 Fab fragment (Fab, V domains shown)
VH: B1 VH with S60D
VL: B1 VL with L24S, P25A, M51F, Y52K, Q53L
B4: A8c7 monoclonal antibody (antibody, V domains shown)
VH: B1 VH with G57D, F105W
VL: B1 VL with L24S, M51R
B5: A1e9 Fab fragment (Fab, V domains shown)
VH: B1 VH with S60H, F105W
VL: B1 VL with L24S, P25L, M51F, Y52K, Q53L
B6: A4B4 monoclonal antibody (antibody, V domains shown)
VH: B1 VH with G57D, S60H
VL: B1 VL with L24S, P25A, M51F, Y52F, Q53L, S54D
B7: P12f4 monoclonal antibody (antibody, V domains shown)
VH: B1 VH with A32P, S60H
VL: B1 VL with L24S, P25L, M51R, Y52G, Q53L, S54P
B8: P11d4 Fab fragment (Fab, V domains shown)
VH: B1 VH with A32P, S60H, F105W
VL: B1 VL with L24S, Y52R, Q53L, S54A
B9: A8c7 Fab fragment (Fab, V domains shown)
VH: B1 VH with G57D, F105W
VL: B1 VL with L24S, M51R
B10: P12f4 Fab fragment (Fab, V domains shown)
VH: B1 VH with A32P, S60H
VL: B1 VL with L24S, P25L, M51R, Y52G, Q53L, S54P
B11: A17d4(1) Fab fragment (Fab, V domains shown)
VH: B1 VH
VL: B1 VL
B12: A13a11 Fab fragment (Fab, V domains shown)
VH: B1 VH with G57D, S60H, F105W
VL: B1 VL with L24S, M51Y, Y52R, Q53H
B13: P11d4 monoclonal antibody (antibody, V domains shown)
VH: B1 VH with A32P, S60H, F105W
VL: B1 VL with L24S, Y52R, Q53L, S54A
B14: A13c4 monoclonal antibody (antibody, V domains shown)
VH: B1 VH
VL: B1 VL with L24S, P25L
B15: A12a6 monoclonal antibody (antibody, V domains shown)
VH: B1 VH with S60D
VL: B1 VL with L24S, P25A, M51F, Y52K, Q53L
B16: P12f2 monoclonal antibody (antibody, V domains shown)
VH: B1 VH with A32P, G57D, S60H
VL: B1 VL with L24S, P25L, M51F, Q53L
B17: A1e9 monoclonal antibody (antibody, V domains shown)
VH: B1 VH with S60H, F105W
VL: B1 VL with L24S, P25L, M51F, Y52K, Q53L
B18: P12f2 Fab fragment (Fab, V domains shown)
VH: B1 VH with A32P, G57D, S60H
VL: B1 VL with L24S, P25L, M51F, Q53L
B19: A1h5 Fab fragment (Fab, V domains shown)
VH: B1 VH with S60H, F105W
VL: B1 VL with L24S, P25L, R28S, M51F, Y52F, Q53H, S54R
B20: A4B4 Fab fragment (Fab, V domains shown)
VH: B1 VH with G57D, S60H
VL: B1 VL with L24S, P25A, M51F, Y52F, Q53L, S54D

Each binder was assayed against RSV F protein on respiratory syncytial virus (RSV-Long strain) (respiratory syncytial virus (Long strain)) (UniProt P12568) (assay: cell-based or functional assay).
Chain of RSV F protein on respiratory syncytial virus (RSV-Long strain) (respiratory syncytial virus (Long strain)) (P12568 26-574): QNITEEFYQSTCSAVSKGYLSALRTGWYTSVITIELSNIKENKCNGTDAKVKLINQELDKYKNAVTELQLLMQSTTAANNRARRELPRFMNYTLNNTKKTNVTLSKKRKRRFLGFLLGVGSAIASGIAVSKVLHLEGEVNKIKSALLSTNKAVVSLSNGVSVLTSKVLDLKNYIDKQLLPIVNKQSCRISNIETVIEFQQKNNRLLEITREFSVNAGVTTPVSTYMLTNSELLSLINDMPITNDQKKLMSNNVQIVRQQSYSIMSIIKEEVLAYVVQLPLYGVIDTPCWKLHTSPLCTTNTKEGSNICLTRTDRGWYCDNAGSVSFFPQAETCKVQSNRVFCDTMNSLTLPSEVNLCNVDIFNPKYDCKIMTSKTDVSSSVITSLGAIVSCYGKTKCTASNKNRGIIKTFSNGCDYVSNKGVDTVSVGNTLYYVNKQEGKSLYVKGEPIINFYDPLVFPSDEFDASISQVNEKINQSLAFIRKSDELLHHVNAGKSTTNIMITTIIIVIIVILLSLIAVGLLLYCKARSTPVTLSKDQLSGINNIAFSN

| Binder | Fold Difference (Control IC50) | Fold Difference (Curve IC50) | Mean IC50 (Control), RSV microneutralization | Mean IC50 (Curve), RSV microneutralization |
| --- | --- | --- | --- | --- |
| B1 | 15 fold | 13 fold | 0.0354 µg/mL | 0.0342 µg/mL |
| B2 | 21 fold | 17 fold | 0.0258 µg/mL | 0.0264 µg/mL |
| B3 | 17 fold | 16 fold | 0.031 µg/mL | 0.0287 µg/mL |
| B4 | 14 fold | 13 fold | 0.0383 µg/mL | 0.0337 µg/mL |
| B5 | 4 fold | 3 fold | 0.125 µg/mL | 0.157 µg/mL |
| B6 | 35 fold | 27 fold | 0.0154 µg/mL | 0.0171 µg/mL |
| B7 | 23 fold | 19 fold | 0.0235 µg/mL | 0.0242 µg/mL |
| B8 |  |  | > 1 µg/mL | > 1 µg/mL |
| B9 | 34 fold | 3 fold | 0.157 µg/mL | 0.177 µg/mL |
| B10 | 15 fold | 10 fold | 0.0351 µg/mL | 0.0464 µg/mL |
| B11 | 31 fold | 25 fold | 0.0171 µg/mL | 0.0179 µg/mL |
| B12 | 5 fold | 4 fold | 0.102 µg/mL | 0.12 µg/mL |
| B13 | 19 fold | 21 fold | 0.0289 µg/mL | 0.0217 µg/mL |
| B14 | 14 fold | 12 fold | 0.0375 µg/mL | 0.0376 µg/mL |
| B15 | 15 fold | 13 fold | 0.0354 µg/mL | 0.0357 µg/mL |
| B16 | 24 fold | 20 fold | 0.0223 µg/mL | 0.0231 µg/mL |
| B17 | 8 fold | 7 fold | 0.0645 µg/mL | 0.0625 µg/mL |
| B18 | 16 fold | 11 fold | 0.0326 µg/mL | 0.0407 µg/mL |
| B19 | 3 fold | 2 fold | 0.176 µg/mL | 0.194 µg/mL |
| B20 | 13 fold | 11 fold | 0.0411 µg/mL | 0.0414 µg/mL |
